Assay results: patent publication US20220025344A1 (Novartis, published 2022)
Several values for one entry are separate records, joined by “and”; a condition that tells them apart may be missing. Equal entries are not always repeated.

B2: LPL(28-475)-(G4S)4-hGPIHBP1(21-151)-FLAG-HIS6-Avi (enzyme)
chain: ADQRRDFIDIESKFALRTPEDTAEDTCHLIPGVAESVATCHFNHSSKTFMVIHGWTVTGMYESWVPKLVAALYKREPDSNVIVVDWLSRAQEHYPVSAGYTKLVGQDVARFINWMEEEFNYPLDNVHLLGYSLGAHAAGIAGSLTNKKVNRITGLDPAGPNFEYAEAPSRLSPDDADFVDVLHTFTRGSPGRSIGIQKPVGHVDIYPNGGTFQPGCNIGEAIRVIAERGLGDVDQLVKCSHERSIHLFIDSLLNEENPSKAYRCSSKEAFEKGLCLSCRKNRCNNLGYEINKVRAKRSSKMYLKTRSQMPYKVFHYQVKIHFSGTESETHTNQAFEISLYGTVAESENIPFTLPEVSTNKTYSFLIYTEVDIGELLMLKLKWKSDSYFSWSDWWSSPGFAIQKIRVKAGETQKKVIFCSREKVSHLQKGKAPAVFVKCHDKSLNKKSGGGGGSGGGGSGGGGSGGGGSQTQQEEEEEDEDHGPDDYDEEDEDEVEEEETNRLPGGRSRVLLRCYTCKSLPRDERCNLTQNCSHGQTCTTLIAHGNTESGLLTTHSTWCTDSCQPITKTVEGTQVTMTCCQSSLCNVPPWQSSRVQDPTGDYKDDDDKHHHHHHGGGLNDIFEAQKIEWHE
modifications: biotin on the C-terminal AviTag in the ELISA and SPR assays
notes: also called LPL-GPIHBP1 fusion polypeptide; LPL-GPIHBP1 fusion
B3: Human ANGPTL4(26-406)-FLAG-6HIS-Avi (ligand)
chain: GPVQSKSPRFASWDEMNVLAHGLLQLGQGLREHAERTRSQLSALERRLSACGSACQGTEGSTDLPLAPESRVDPEVLHSLQTQLKAQNSRIQQLFHKVAQQQRHLEKQHLRIQHLQSQFGLLDHKHLDHEVAKPARRKRLPEMAQPVDPAHNVSRLHRLPRDCQELFQVGERQSGLFEIQPQGSPPFLVNCKMTSDGGWTVIQRRHDGSVDFNRPWEAYKAGFGDPHGEFWLGLEKVHSITGDRNSRLAVQLRDWDGNAELLQFSVHLGGEDTAYSLQLTAPVAGQLGATTVPPSGLSVPFSTWDQDHDLRRDKNCAKSLSGGWWFGTCSHSNLNGQYFRSIPQQRQKLKKGIFWKTWRGRYYPLQATTMLIQPMAAEAASDYKDDDDKHHHHHHGGGLNDIFEAQKIEWHE

Columns and labels:
[1] = target: Co-expressed human LPL/soluble GPIHBP1 complex (human) (UniProt P06858); assay: cell-based or functional assay
[2] = target: Recombinant human LPL (mature human lipoprotein lipase, amino acids 28-475) (human) (UniProt P06858); assay: cell-based or functional assay
[3] = target: T1, Co-expressed human LPL/soluble GPIHBP1 complex (human, UniProt P06858 28-475; Q8IV16 21-151, biotin at the C-terminal end of GPIHBP1 in the ELISA and SPR assays); assay: TR-FRET dissociation of the LPL/GPIHBP1 complex: free hGPIHBP1-FHA binds the LPL of the complex and competes with the labelled GPIHBP1. FRET ratio falls from about 20000 to about 1000 between log -1 and log 3 (nM). [cont.) D]
T1 construct: Non-covalent 1:1 complex; also called LPL/GPIHBP1 complex; LPL-GPIHBP1 complex
T1 sequence 1: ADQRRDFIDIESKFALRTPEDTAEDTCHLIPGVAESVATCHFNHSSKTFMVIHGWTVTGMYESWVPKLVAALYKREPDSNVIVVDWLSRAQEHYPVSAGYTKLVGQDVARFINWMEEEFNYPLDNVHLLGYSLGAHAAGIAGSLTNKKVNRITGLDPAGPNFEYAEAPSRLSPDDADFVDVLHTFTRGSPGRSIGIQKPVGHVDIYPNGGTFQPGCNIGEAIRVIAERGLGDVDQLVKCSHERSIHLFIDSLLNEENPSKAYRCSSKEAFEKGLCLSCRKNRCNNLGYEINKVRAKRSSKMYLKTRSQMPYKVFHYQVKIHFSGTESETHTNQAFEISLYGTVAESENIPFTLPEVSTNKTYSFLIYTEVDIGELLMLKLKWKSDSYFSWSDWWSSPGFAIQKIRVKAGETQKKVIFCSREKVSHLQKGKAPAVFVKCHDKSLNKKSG
T1 sequence 2: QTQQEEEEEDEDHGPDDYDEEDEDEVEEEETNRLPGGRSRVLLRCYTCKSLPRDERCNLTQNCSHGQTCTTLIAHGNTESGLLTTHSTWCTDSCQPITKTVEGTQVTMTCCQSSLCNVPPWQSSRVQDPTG

hANGPTL4-myc = target: T2, hANGPTL4-myc (human, UniProt Q9BY76); assay: TR-FRET binding assay (anti-HA-Tb / anti-myc-D2). Target taken from paragraph 181 (fusion polypeptide); the methods instead describe a 6HIS-hLPL-HA-Flag/hGPIHBP1-Avi complex at 10 nM. [cont.) C) left graph]
T2 construct: residues 26-406; It is a different tag version from m7; also called ANGPTL4(26-406)-6HIS-myc
T2 sequence (single chain, looked up): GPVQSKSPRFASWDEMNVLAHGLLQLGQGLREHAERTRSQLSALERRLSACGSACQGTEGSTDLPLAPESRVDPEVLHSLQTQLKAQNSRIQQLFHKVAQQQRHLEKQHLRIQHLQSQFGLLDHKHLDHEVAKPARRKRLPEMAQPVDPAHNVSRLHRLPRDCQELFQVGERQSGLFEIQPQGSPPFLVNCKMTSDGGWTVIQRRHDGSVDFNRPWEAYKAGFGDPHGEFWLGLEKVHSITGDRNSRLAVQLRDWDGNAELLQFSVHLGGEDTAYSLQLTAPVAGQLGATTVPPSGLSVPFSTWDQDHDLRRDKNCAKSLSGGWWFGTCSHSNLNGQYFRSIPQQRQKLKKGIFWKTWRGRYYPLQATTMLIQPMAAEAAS

[4] = target: B3; assay: MSD ELISA: 10 nM biotinylated fusion incubated with ANGPTL4 and captured on streptavidin; bound ANGPTL4 detected with an ANGPTL4 Ab
Description: LPL-GPIHBP1 complex or LPL-GPIHBP1 fusion (10 nM, site-specifically biotinylated at the C-terminal end of GPIHBP1) were incubated with increasing concentrations of ANGPTL4 (a 12 point 2-fold serial dilution with highest concentration of 100 nM). The reaction mix was then applied onto a streptavidin coated MSD. The presence of LPL and ANGPTL4 was detected using an LPL or ANGPTL4 specific Abs, which were subsequently quantified using sulpho-tagged secondary Ab. To generate a signal, lx MSD read buffer T was added and the plate was developed using a Sector Imager 6000 (Meso Scale Discovery).
First, the co-expressed LPL/GPIHBP1 complex or the LPL-GPIHBP1 fusion polypeptide was immobilized on a streptavidin surface through C-terminally biotinylated GPIHBP1. The proteins were then incubated with ANGPTL4 and changes in bound ANGPTL4 and LPL were monitored with respective high affinity antibodies. A schematic representation of the assay is depicted on top of FIG. 3, panel A. When the complex was incubated with ANGPTL4, displacement of LPL from the co-expressed LPL/GPIHBP1 complex as function of ANGPTL4 concentration was observed. On the other hand, ANGPTL4 was unable to displace LPL from the covalently linked LPL-GPIHBP1 fusion polypeptide (FIG. 3, panel A, left side). Correspondingly, when bound ANGPTL4 was probed, ANGPTL4 was not captured by the co-expressed LPL/GPIHBP1 complex. […]

[5] = target: T1, Co-expressed human LPL/soluble GPIHBP1 …; assay: TR-FRET dissociation of the LPL/GPIHBP1 complex (10 nM 6HIS-hLPL-HA-Flag / biotinylated hGPIHBP1-Avi, anti-HA-Tb / streptavidin-D2). ANGPTL4 binds LPL and displaces GPIHBP1. [cont.) C) right graph]
Description: The assay for TR-FRET based detection of ANGPTL4 binding to the LPL/GPIHBP1 complex was carried out in 384-well plates (ProxiPlate™ 384-well white, Perkin Elmer, USA) in a final volume of 20 μl. The composition of the assay buffer was 20 mM HEPES pH=7.4, 100 mM NaCl, 10% HI-FBS, 5 mM CaCl₂). The assay procedure was as follows: First 4 μL/well of 5x 6HIS-hLPL-HA-Flag/biotinylated hGPIHBP1-Avi complex (50 nM stock in assay buffer, 10 nM complex final concentration) was added to 8 μL/well buffer. Then 4 μL/well 5x non-biotinylated ANGPTL4(26-406)-Flag-6HIS-Avi (final concentrations of 1 to 1000 nM) was added and incubation was carried out at room temperature for 1 hour. After incubation 4 μL 5× anti-HA-Tb/[…] (Cisbio, diluted in assay buffer to 1.25 nM anti-HA-Tb/50 nM streptavidin-D2 stock concentration) (0.3125 nM anti-HA-Tb/10 nM streptavidin-D2 final concentration) was added and the mixture was incubated at room temperature for 3 hours. Finally the plate was read on an Envision plate reader Ex=320 Em=665 Em=615.

[6] = target: T1, Co-expressed human LPL/soluble GPIHBP1 …; assay: cell-based or functional assay
[7] = target: B2; assay: cell-based or functional assay
[8] = target: T3, Recombinant human LPL (mature human lipoprotein lipase, amino acids 28-475) (human, UniProt P06858 28-475); assay: cell-based or functional assay
T3 sequence: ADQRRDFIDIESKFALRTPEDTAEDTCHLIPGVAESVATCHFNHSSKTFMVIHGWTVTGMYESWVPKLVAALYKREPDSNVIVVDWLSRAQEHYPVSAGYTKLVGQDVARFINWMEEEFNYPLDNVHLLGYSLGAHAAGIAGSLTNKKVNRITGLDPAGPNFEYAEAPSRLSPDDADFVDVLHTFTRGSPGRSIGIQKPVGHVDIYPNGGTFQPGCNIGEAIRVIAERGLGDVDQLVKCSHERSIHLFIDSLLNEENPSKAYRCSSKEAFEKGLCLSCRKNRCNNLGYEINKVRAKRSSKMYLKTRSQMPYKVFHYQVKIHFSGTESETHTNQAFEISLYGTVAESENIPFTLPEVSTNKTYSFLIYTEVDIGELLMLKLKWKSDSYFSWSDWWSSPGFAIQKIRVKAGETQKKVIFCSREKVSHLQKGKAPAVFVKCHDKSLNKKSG

[9] = target: T1, Co-expressed human LPL/soluble GPIHBP1 …; assay: TR-FRET dissociation of the LPL/GPIHBP1 complex: ANGPTL4 binds the LPL of the complex and displaces the labelled GPIHBP1. FRET ratio falls from about 20000 to about 1000 between log -1 and log 3 (nM). [cont.) D]

Human ANGPTL3(17-460)-FLAG-HIS6-Avi (from UniProt Q9Y5C1 17-460) (ligand)
IC50 of ANGPTL3 inactivation of LPL enzymatic activity [1]: 300 nM | fold resistance to ANGPTL3 inactivation against LPL alone [1]: > 37 fold | IC50 of ANGPTL3 inactivation of LPL enzymatic activity [2]: 7 nM and 8 nM

B1: Human soluble GPIHBP1(21-151)-FLAG-HIS6-Avi (receptor)
chain: QTQQEEEEEDEDHGPDDYDEEDEDEVEEEETNRLPGGRSRVLLRCYTCKSLPRDERCNLTQNCSHGQTCTTLIAHGNTESGLLTTHSTWCTDSCQPITKTVEGTQVTMTCCQSSLCNVPPWQSSRVQDPTGDYKDDDDKHHHHHHGGGLNDIFEAQKIEWHE
modifications: biotin on the C-terminal AviTag (BirA, site-specific) where used for immobilisation on streptavidin
notes: also called solGPIHBP1 with C-terminal FHA tag; C-terminally biotinylated GPIHBP1
IC50 [3]: 15 nM

B2
binding result (hANGPTL4-myc): binds | binding result [4]: binds

B3
IC50 (read off the curve) [5]: ~20 nM | IC50 of ANGPTL4 inactivation of LPL enzymatic activity [6]: 19 nM | fold resistance to ANGPTL4 inactivation against LPL alone [6]: > 6 fold | IC50 of ANGPTL4 inactivation of LPL enzymatic activity [7]: 107 nM | fold increase of the IC50 of ANGPTL4 inactivation against LPL alone [7]: > 35 fold | fold increase of the IC50 of ANGPTL4 inactivation against the co-expressed LPL/GPIHBP1 complex [7]: > 5 fold | IC50 of ANGPTL4 inactivation of LPL enzymatic activity [8]: 3 nM | IC50 [9]: 18 nM
